The assay concerns the target SNAP-tagged human melanocortin-4 receptor (SNAP-MC4R) (human) (UniProt P32245).

Our source for the EC50 of α-MSH-stimulated cAMP production (Epac-S^H187 FRET biosensor, HEK293), MC4R + mock and EC50 of α-MSH-stimulated cAMP production (Epac-S^H187 FRET biosensor, HEK293), MC4R co-expressed with MRAP2 (1 + 1 or 1 + 4) values is paper PMC12462500.

UniProt P32245, sequence (P32245 whole entry): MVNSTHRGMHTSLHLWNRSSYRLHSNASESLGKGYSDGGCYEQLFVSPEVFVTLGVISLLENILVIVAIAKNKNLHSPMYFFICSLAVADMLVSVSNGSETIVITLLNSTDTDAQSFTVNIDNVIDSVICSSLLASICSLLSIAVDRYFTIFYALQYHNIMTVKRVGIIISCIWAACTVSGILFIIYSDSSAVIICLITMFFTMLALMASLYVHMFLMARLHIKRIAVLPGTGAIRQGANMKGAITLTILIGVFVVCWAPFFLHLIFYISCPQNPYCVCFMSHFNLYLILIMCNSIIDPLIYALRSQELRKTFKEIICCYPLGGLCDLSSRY

For α-MSH (peptide), the EC50 of α-MSH-stimulated cAMP production (Epac-S^H187 FRET biosensor, HEK293), MC4R + mock turned out to be 4.5 nM and the EC50 of α-MSH-stimulated cAMP production (Epac-S^H187 FRET biosensor, HEK293), MC4R co-expressed with MRAP2 (1 + 1 or 1 + 4) was found to be 1.3 nM.
